Source: PMC3477164, “Improved eIF4E Binding Peptides by Phage Display Guided Design: Plasticity of Interacting Surfaces Yield Collective Effects” (PLoS ONE, 2012)
Ends that are not written are not given here.

Legend:
eIF4E = target: T1, eIF4E (Homo sapiens, UniProt P06730); assay: Fluorescence based thermal shift (thermal stability) assay, Sypro Red; type: binding; conditions: shift of eIF4E Tm, 10 µM eIF4E, 100 µM peptide, PBS, 20 to 90°C at 1°C/min, Ex/Em 533/640 nm
T1 construct: Full-length human eIF4E was expressed and purified as described previously; made in house
T1 sequence (P06730 whole entry): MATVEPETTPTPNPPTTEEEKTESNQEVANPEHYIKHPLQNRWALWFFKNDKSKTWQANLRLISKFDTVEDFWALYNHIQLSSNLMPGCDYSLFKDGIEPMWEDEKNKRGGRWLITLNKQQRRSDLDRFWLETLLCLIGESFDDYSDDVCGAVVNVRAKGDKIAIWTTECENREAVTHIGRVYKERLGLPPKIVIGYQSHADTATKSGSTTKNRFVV
Protocol: A fluorescence based thermal shift assay was used to screen and rank the rationally designed eIF4E binding derivative peptides. The fluorescent dye Sypro Red (Invitrogen) was used to monitor thermal denaturation of eIF4E. Binding of the dye molecule to eIF4E, as it unfolds due to thermal denaturation, results in a sharp increase in the fluorescence intensity. The midpoint of this transition is termed the Tm. The thermal shift assay was conducted in a LightCycler (Roche). Protein samples studied were made up to a total volume of 50 µl in PBS (Phosphate Buffered Saline) with Sypro Red, (Invitrogen, 5000× DMSO stock) at a 3.125× concentration. The final protein concentration was 10 µM. Protein samples were incubated with derivative peptides at a concentration of 100 µM. […] The fluorescence intensity was measured with Ex/Em:533/640 nm.
The fluorescence data against temperature derived from the LightCycler were fitted to Eq. (1) to obtain ΔHu, ΔCpu, and Tm by nonlinear regression using the program Prism 4.0, Graphpad: [drawing 1] (1) where Ft is the fluorescence intensity at temperature T; Tm is the midpoint temperature of the protein-unfolding transition, Fpre and Fpost are the pretransitional and posttransitional fluorescence intensities, respectively, R is the gas constant, ΔHu is the enthalpy of protein unfolding, and ΔCpu is the heat capacity change on protein unfolding. […]

[1] = Solubility of the peptide as observed on handling; type: physicochemical; conditions: qualitative observation
[2] = target: T2, Eukaryotic initiation factor 4E (eIF4E), full-length human (human, UniProt P06730 1-217); assay: SPR; eIF4E amine coupled to a CM5 chip (about 1000 RU, m7GTP present at immobilisation), peptides injected; 10 mM Hepes pH 7.6, 0.15 M NaCl, 1 mM DTT, 0.1% Tween20, 3% DMSO; Biacore T100; Kd from the equilibrium responses (Keq), 1:1 model, three titrations; conditions: both partners purified
T2 construct: eIF4E, human, full length
T2 sequence (P06730 whole entry): as above

[3] = target: T2, Eukaryotic initiation factor 4E …; assay: SPR; eIF4E amine coupled to a CM5 chip (about 1000 RU, m7GTP present at immobilisation), peptides injected; 10 mM Hepes pH 7.6, 0.15 M NaCl, 1 mM DTT, 0.1% Tween20, 3% DMSO; Biacore T100; Kd from the association and dissociation phases (Kkin), 1:1 model, three titrations; conditions: both partners purified
[4] = target: T2, Eukaryotic initiation factor 4E …; assay: fluorescence based thermal shift assay; 10 uM eIF4E with 100 uM peptide in PBS, Sypro Red, heated from 20 to 90 °C at 1 °C/min; Kd estimated from the Tm shift (enthalpy of binding taken to be -5 kcal/mol); conditions: both partners purified
[5] = target: T2, Eukaryotic initiation factor 4E …; assay: SPR; eIF4E amine coupled to a CM5 chip (about 1000 RU, m7GTP present at immobilisation), peptides injected; 10 mM Hepes pH 7.6, 0.15 M NaCl, 1 mM DTT, 0.1% Tween20, 3% DMSO; Biacore T100; Kd from the association and dissociation phases (Kkin), 1:1 model, three titrations; conditions: both partners purified; remark: listed apart in the source
[6] = target: T2, Eukaryotic initiation factor 4E …; assay: SPR; eIF4E amine coupled to a CM5 chip (about 1000 RU, m7GTP present at immobilisation), peptides injected; 10 mM Hepes pH 7.6, 0.15 M NaCl, 1 mM DTT, 0.1% Tween20, 3% DMSO; Biacore T100; Kd from the equilibrium responses (Keq), 1:1 model, three titrations; conditions: both partners purified; remark: listed apart in the source
[7] = target: T2, Eukaryotic initiation factor 4E …; assay: as above; conditions: both partners purified; remark: listed apart in the source
[8] = target: T2, Eukaryotic initiation factor 4E …; assay: SPR; eIF4E amine coupled to a CM5 chip (about 1000 RU, m7GTP present at immobilisation), peptides injected; 10 mM Hepes pH 7.6, 0.15 M NaCl, 1 mM DTT, 0.1% Tween20, 3% DMSO; Biacore T100; Kd from the association and dissociation phases (Kkin), 1:1 model, three titrations; conditions: both partners purified; remark: listed apart in the source

For “SLHYSRDQLVAL [PHAGE, phage display selected 12mer […]]”, the “Thermal Shift (Tm, °C)” value (eIF4E) was “no observable shift” and the “solubility of the peptide (in words)” value [1] was “insoluble”.

In the case of KKRYSRDQLVAL [PHAGESOL], the “solubility of the peptide (in words)” value [1] is reported as “soluble”.

B1: eIF4G1 wild type peptide (peptide)
peptide: KKRYDREFLLGF
notes: also called eIF4G1-WT; eIF4G1 peptide; source: synthetic peptide (Mimotopes), HPLC purified to >90%
Molecule B1 has a Kd [2] of 580 ± 16.7 nM, a Kd [3] of 524 ± 61.6 nM and a Kd [4] of 460 nM. For the same molecule, the “thermal shift (Tm)” value [4] was 7.03 ± 0.1 °C.

B2: eIF4G1-D5T peptide (peptide)
peptide: KKRYTREFLLGF
notes: eIF4G1 peptide with D5T; source: synthetic peptide (Mimotopes), HPLC purified to >90%
B2 gave a Kd [5] of 105 ± 7.2 nM and a Kd [6] of 110 ± 1.8 nM.

B3: VL-PHAGESOL-Q8F peptide (peptide)
peptide: KKRYSRDFLLAL
notes: PHAGESOL with V10L and Q8F; source: synthetic peptide (Mimotopes), HPLC purified to >90%
Work on B3 yielded a Kd [7] of 49.6 ± 4.3 nM and a Kd [8] of 47.1 ± 1.5 nM.

B4: VL-PHAGESOL-Q8F/L12F peptide (peptide)
peptide: KKRYSRDFLLAF
notes: PHAGESOL with V10L, Q8F and L12F; source: synthetic peptide (Mimotopes), HPLC purified to >90%
B4 gave a Kd [7] of 69.9 ± 6.4 nM and a Kd [8] of 62 ± 3.5 nM.

B5: VL-PHAGESOL peptide (peptide)
peptide: KKRYSRDQLLAL
notes: PHAGESOL with V10L; also called PHAGESOL V10L; source: synthetic peptide (Mimotopes), HPLC purified to >90%
Molecule B5 has a Kd [7] of 37.2 ± 1.6 nM and a Kd [8] of 34.7 ± 1.2 nM.

B6: PHAGESOL-Q8F peptide (peptide)
peptide: KKRYSRDFLVAL
notes: PHAGESOL with Q8F; source: synthetic peptide (Mimotopes), HPLC purified to >90%
With B6 the Kd [7] was 196 ± 6.3 nM and the Kd [8] was 184 ± 15.4 nM.

B7: eIF4G1-F12L peptide (peptide)
peptide: KKRYDREFLLGL
notes: eIF4G1 peptide with F12L; also called F12L mutant peptide; source: synthetic peptide (Mimotopes), HPLC purified to >90%
B7 gave a Kd [2] of 761 ± 63.8 nM, a Kd [3] of 718 ± 98 nM and a Kd [4] of 520 nM. The “thermal shift (Tm)” value [4] was 6.87 ± 0.12 °C.

B8: VL-PHAGESOL-L12F peptide (peptide)
peptide: KKRYSRDQLLAF
notes: PHAGESOL with V10L and L12F; source: synthetic peptide (Mimotopes), HPLC purified to >90%
With B8 the Kd [7] was 43.21 ± 0.34 nM and the Kd [8] was 40.7 ± 3.8 nM.

B9: eIF4G1-D5C peptide (peptide)
peptide: KKRYCREFLLGF
notes: eIF4G1 peptide with D5C; source: synthetic peptide (Mimotopes), HPLC purified to >90%
With B9 the Kd [5] was 458 ± 19.8 nM and the Kd [6] was 436 ± 6.4 nM.

B10: eIF4G1-OPT peptide (peptide)
peptide: KKRYSREFLLAF
notes: eIF4G1 peptide with D5 changed to S and G11 changed to A; source: synthetic peptide (Mimotopes), HPLC purified to >90%
B10 showed a Kd [7] of 52.2 ± 1.4 nM and a Kd [8] of 59.4 ± 2.9 nM.

B11: eIF4G1-F8Q peptide (peptide)
peptide: KKRYDREQLLGF
notes: eIF4G1 peptide with F8Q; also called eIF4G-F/Q; source: synthetic peptide (Mimotopes), HPLC purified to >90%
B11 showed a Kd [2] of 1630 ± 75.1 nM, a Kd [3] of 1780 ± 406 nM and a Kd [4] of 2000 nM. The “thermal shift (Tm)” value [4] was 5 ± 0.03 °C.

B12: eIF4G1-L10V peptide (peptide)
peptide: KKRYDREFLVGF
notes: eIF4G1 peptide with L10V; source: synthetic peptide (Mimotopes), HPLC purified to >90%
Molecule B12 has a Kd [2] of 4540 ± 622 nM, a Kd [3] of 2680 ± 444 nM and a Kd [4] of 4400 nM. The “thermal shift (Tm)” value [4] was 3.9 ± 0.03 °C.

B13: eIF4G1-D5E peptide (peptide)
peptide: KKRYEREFLLGF
notes: eIF4G1 peptide with D5E; also called eIF4G-D5E; source: synthetic peptide (Mimotopes), HPLC purified to >90%
Molecule B13 has a Kd [5] of 692 ± 31.2 nM and a Kd [6] of 749 ± 57.7 nM.

B14: eIF4G1-QL peptide (peptide)
peptide: KKRYDREQLLGL
notes: eIF4G1 peptide with F8Q and F12L; also called eIF4G1_F8Q/F12L; source: synthetic peptide (Mimotopes), HPLC purified to >90%
For B14, the Kd [7] was 1090 ± 49.9 nM and the Kd [8] was 1090 ± 106 nM.

B15: eIF4G1-D5P peptide (peptide)
peptide: KKRYPREFLLGF
notes: eIF4G1 peptide with D5P; source: synthetic peptide (Mimotopes), HPLC purified to >90%
With B15 the Kd [5] was 717 ± 31.2 nM and the Kd [6] was 684 ± 13.6 nM.

B16: PHAGESOL peptide (peptide)
peptide: KKRYSRDQLVAL
notes: phage display selected 12-mer … with its N-terminal SLH changed to KKR of the eIF4G1 peptide; source: synthetic peptide (Mimotopes), HPLC purified to >90%
In the case of B16, the Kd [2] is reported as 76.7 ± 3.4 nM, the Kd [3] is reported as 77.1 ± 9 nM and the Kd [4] is reported as 77 nM. For the same molecule, the “thermal shift (Tm)” value [4] was 9.83 ± 0.1 °C.

B17: eIF4G1-D5N peptide (peptide)
peptide: KKRYNREFLLGF
notes: eIF4G1 peptide with D5N; source: synthetic peptide (Mimotopes), HPLC purified to >90%
B17 showed a Kd [5] of 388.9 ± 1.6 nM and a Kd [6] of 444.5 ± 1.6 nM.

B18: PHAGESOL-D7E peptide (peptide)
peptide: KKRYSREQLVAL
notes: PHAGESOL with D7E; source: synthetic peptide (Mimotopes), HPLC purified to >90%
For B18, the Kd [7] was 51.6 ± 1.8 nM and the Kd [8] was 52.9 ± 2.1 nM.

B19: eIF4G1-E7D peptide (peptide)
peptide: KKRYDRDFLLGF
notes: eIF4G1 peptide with E7D; also called E7D mutant peptide; source: synthetic peptide (Mimotopes), HPLC purified to >90%
Molecule B19 has a Kd [2] of 784 ± 21.5 nM, a Kd [3] of 759 ± 70.7 nM and a Kd [4] of 520 nM. For the same molecule, the “thermal shift (Tm)” value [4] was 6.87 ± 0.18 °C.

B20: eIF4G1-G11A peptide (peptide)
peptide: KKRYDREFLLAF
notes: eIF4G1 peptide with G11A; source: synthetic peptide (Mimotopes), HPLC purified to >90%
Work on B20 yielded a Kd [2] of 309 ± 11.6 nM, a Kd [3] of 282 ± 17.6 nM and a Kd [4] of 200 nM. For the same molecule, the “thermal shift (Tm)” value [4] was 8.13 ± 0.12 °C.

B21: eIF4G1-D5S peptide (peptide)
peptide: KKRYSREFLLGF
notes: eIF4G1 peptide with D5S; also called eIF4G-D5S; source: synthetic peptide (Mimotopes), HPLC purified to >90%
For B21, the Kd [2] was 103 ± 2.3 nM, the Kd [3] was 99.9 ± 6.2 nM and the Kd [4] was 100 nM. For the same molecule, the “thermal shift (Tm)” value [4] was 8.97 ± 0.07 °C.

B22: eIF4G1-D5G peptide (peptide)
peptide: KKRYGREFLLGF
notes: eIF4G1 peptide with D5G; source: synthetic peptide (Mimotopes), HPLC purified to >90%
B22 gave a Kd [5] of 440 ± 26 nM and a Kd [6] of 468 ± 28.1 nM.

B23: PHAGESOL-Q8F/L12F peptide (peptide)
peptide: KKRYSRDFLVAF
notes: PHAGESOL with Q8F and L12F; source: synthetic peptide (Mimotopes), HPLC purified to >90%
In the case of B23, the Kd [7] is reported as 348 ± 20.9 nM and the Kd [8] is reported as 374 ± 33.1 nM.

B24: PHAGESOL-L12F peptide (peptide)
peptide: KKRYSRDQLVAF
notes: PHAGESOL with L12F; source: synthetic peptide (Mimotopes), HPLC purified to >90%
B24 showed a Kd [7] of 112 ± 2.7 nM and a Kd [8] of 120 ± 5.3 nM.
